Columns and labels:
[1] = target: natural Fel d1 (cat (Felis domesticus)) (UniProt P30438); test: SPR Biacore T200 sequential binding, 25 µg/mL mAb2 over mAb1:Fel d1; coupled mAb1: REGN1909
[2] = target: Fel d1 (B-A)-mmH (cat (Felis domesticus)); test: blocking ELISA, Fel d1 binding to donor polyclonal cat-allergic IgE
[3] = target: natural Fel d1 (cat (Felis domesticus)) (UniProt P30438); test: cell-based or functional assay
[4] = target: natural Fel d1 (cat (Felis domesticus)) (UniProt P30438); test: blocking ELISA, Fel d1 binding to plate-captured polyclonal human IgE

Sequence of Fel d1 (B-A)-mmH (cat (Felis domesticus)) (chain, as listed by the source limits assumed): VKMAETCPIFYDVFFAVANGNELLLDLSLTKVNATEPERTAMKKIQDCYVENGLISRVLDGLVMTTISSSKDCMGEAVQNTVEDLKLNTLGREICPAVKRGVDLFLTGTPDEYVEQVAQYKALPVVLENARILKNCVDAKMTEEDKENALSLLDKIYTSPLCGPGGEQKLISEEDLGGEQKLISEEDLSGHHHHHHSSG

Row | Non-binding Control mAb (RU) [1] | IC50 [2] | basophil activation test, CD63 upregulation on basophils of cat-allergic donors, IC50 [3] | basophil activation test, CD203c upregulation on basophils of cat-allergic donors, IC50 [3] | phosphoflow assay, phosphorylation of ERK in basophils, inhibition [3] | IC50 [4] | maximum blockade [4] | Substance
1 | -64 RU |  |  |  |  |  |  | Non-binding Control mAb (antibody)
2 |  | 0.58 nM | 0.01 nM | 0.055 nM | > 80% | 0.45 nM | 83% | REGN1908-1909

Reference: patent US20200255503A1
